Assay results published in the supplement of paper PMC11908140.

B1: library; numbered along this chain (parent)
chain: MRKPRAAVGSGHRKQAASQEGRQKHAKNNSQAKPSACDGLARQPEEVVLQASVSSYHLFRDVAEVTAFRGSLLSWYDQEKRDLPWRRRAEDEMDLDRRAYAVWVSEVMLQQTQVATVINYYTGWMQKWPTLQDLASASLEEVNQLWAGLGYYSRGRRLQEGARKVVEELGGHMPRTAETLQQLLPGVGRYTAGAIASIAFGQATGVVDGNVARVLCRVRAIGADPSSTLVSQQLWGLAQQLVDPARPGDFNQAAMELGATVCTPQRPLCSQCPVESLCRARQRVEQEQLLASGSLSGSPDVEECAPNTGQCHLCLPPSEPWDQTLGVVNFPRKASRKPPREESSATCVLEQPGALGAQILLVQRPNSGLLAGLWEFPSVTWEPSEQLQRKALLQELQRWAGPLPATHLRHLGEVVHTFSHIKLTYQVYGLALEGQTPVTTVPPGARWLTQEEFHTAAVSTAMKKVFRVYQGQQPGTCMGSKRSQVSSPCSRKKPRMGQQVLDNFFRSHISTDAHSLNSAAQ

Variants of: B1
Assay: 8OG:A repair function score (normalized; synonymous = 0, nonsense = -1) (normalized log-likelihood score); higher = more repair activity (WT-like)
Conditions: with 8OG:A DNA repair reporter (GFP) in HEK-293 MUTYH KO cells
Method in brief: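 With 10 pg/ml doxycycline, MUTYH knockout HEK-293 cells carrying lentiviral MUTYH cDNA NNN codon-scan libraries were co-transfected with mCherry and an 8OG:A GFP repair reporter. Viable mCherry+ cells were sorted into GFP+ (repair) and GFP− bins at 72 h, three replicates per tile, and tile amplicons were sequenced. Per-tile Rosace fitness scores were then normalized into a repair function score anchored on synonymous and nonsense distributions. Medians were fixed at 0 for synonymous and -1 for nonsense, excluding variants under 300 counts per million at the start.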

8OG:A repair function score, by site and new letter:
T263: P -0.461, V -0.0463, N -0.0422, W -0.28, R -0.0312, L -0.0322, Y -0.113, Q -0.129, M -0.0448, S -0.0723
P267: G -0.225, V -0.195, S -0.361, E -0.836, K -1.06, N -0.863, I -0.711, T -0.202, H -0.87, W -1.06, M -0.774, R -1.04, Y -0.838, L -1.03, C -0.372, D -1.1, A -0.131, Q -0.679, F -0.919
Q271: S -0.0229, L -0.00321, R 0.0206, F -0.0282, P -0.311, E -0.00693, K 0.0343, C -0.0175, D -0.0548, V 0.0124, Y -0.0212, A 0.0211, H -0.0231, T -0.00163, I -0.0397, W -0.0164, G -0.0498, N 0.0195, M -0.0166
C269: M -1.18, E -1.16, T -1.06, L -1.21, K -1.17, Q -1.19, I -1.26, V -1.27, W -1.4, R -1.15, F -1.16, A -1.29, S -1.28, P -1.04, N -1.31, Y -1.12, G -1.26, D -0.992, H -0.96
S270: Q 0.028, D -0.0528, W -0.0132, C -0.0715, R -0.00848, M -0.0147, F -0.0287, P -0.0287, K -0.0187, E -0.0683, L -0.0471, T -0.0207, A -0.0829, G -0.0285, V -0.0277, H 0.0198
